This passage reports response and Kd results from publication PMC8510540.

Assay [1] deals with soluble human FcγRIIA, biotinylated, tetramerized with streptavidin-PE (UniProt P12318). Nature of the assay: multiplex assay: antigen-conjugated beads stained with tetramerized receptor. To be noted: highest antibody concentration point, log10 Ab (nM) about 1.6 (estimated); parent: est. 4.1; read off a plot.
Assay [2] has as its target soluble human FcγRIIIB, biotinylated, tetramerized with streptavidin-PE (UniProt O75015). The description is as above. To be noted: highest antibody concentration point, log10 Ab (nM) about 1.6 (estimated); parent: est. 3.3; read off a plot.
Assay [3] concerns the target HIV-1_(YU-2) gp140 trimer. Nature of the assay: BLI (equilibrium KD).
The target of assay [4] is HIV-1_(YU-2) gp140 trimer. Nature of the assay: BLI (kinetic KD, value in parentheses).
Assay [5] addresses soluble human FcγRIIB, biotinylated, tetramerized with streptavidin-PE (UniProt P31994). Nature of the assay: multiplex assay: antigen-conjugated beads stained with tetramerized receptor. To be noted: highest antibody concentration point, log10 Ab (nM) about 1.6 (estimated); parent: est. 3.4; read off a plot.
Assay [6] deals with soluble human FcγRIIIA, biotinylated, tetramerized with streptavidin-PE (UniProt P08637). The description is as above. The conditions noted are these: highest antibody concentration point, log10 Ab (nM) about 1.6 (estimated); parent: est. 4.3; read off a plot.
Chain of soluble human FcγRIIIA, biotinylated, tetramerized with streptavidin-PE (P08637 17-208): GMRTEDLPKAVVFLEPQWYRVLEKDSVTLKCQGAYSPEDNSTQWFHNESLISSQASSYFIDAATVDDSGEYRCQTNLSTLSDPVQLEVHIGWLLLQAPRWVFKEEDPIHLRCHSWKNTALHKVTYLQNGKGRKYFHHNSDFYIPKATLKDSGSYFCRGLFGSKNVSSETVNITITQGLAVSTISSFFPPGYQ

Chain of soluble human FcγRIIIB, biotinylated, tetramerized with streptavidin-PE (O75015 17-200): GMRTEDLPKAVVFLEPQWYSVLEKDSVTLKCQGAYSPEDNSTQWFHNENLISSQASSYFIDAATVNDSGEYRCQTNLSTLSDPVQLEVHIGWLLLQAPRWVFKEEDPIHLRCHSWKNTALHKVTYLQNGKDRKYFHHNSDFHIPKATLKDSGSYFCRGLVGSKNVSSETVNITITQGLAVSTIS
Chain of soluble human FcγRIIA, biotinylated, tetramerized with streptavidin-PE (P12318 34-217): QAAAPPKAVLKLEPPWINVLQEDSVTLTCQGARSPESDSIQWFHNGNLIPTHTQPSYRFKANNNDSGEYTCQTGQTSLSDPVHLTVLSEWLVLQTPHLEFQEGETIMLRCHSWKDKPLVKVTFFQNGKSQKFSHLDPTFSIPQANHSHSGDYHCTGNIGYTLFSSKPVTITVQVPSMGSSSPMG
Chain of soluble human FcγRIIB, biotinylated, tetramerized with streptavidin-PE (P31994 43-217): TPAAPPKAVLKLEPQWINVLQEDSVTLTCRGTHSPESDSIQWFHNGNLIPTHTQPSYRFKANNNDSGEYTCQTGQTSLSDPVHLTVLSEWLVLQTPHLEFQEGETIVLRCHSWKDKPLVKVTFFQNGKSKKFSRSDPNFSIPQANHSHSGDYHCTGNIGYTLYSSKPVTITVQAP

On to “IgG1 b12 (unmodified Fc) (from UniProt P01857) E430G”, for which the figures for the response in assay [1] and in assay [2] were 4 log10 MFI and 3.1 log10 MFI, respectively. The Kd in assay [3] came out at 0.9 nM; in assay [4] it was 2.26 nM.
For the substance “IgG1 b12 (unmodified Fc) (from UniProt P01857) G236A; S267E; H268F; S324T; I332E”, the figures for the response in assay [1], in assay [5] and in assay [2] were 4.3 log10 MFI, 4.3 log10 MFI and 3.2 log10 MFI, respectively. Further, the Kd is 1.93 nM in assay [3] and 2.78 nM in assay [4].
Turning to “IgG1 b12 (unmodified Fc) (from UniProt P01857) K322A”, the equilibrium dissociation constant (Kd) in assay [3] came to 2.95 nM; in assay [4], 2.56 nM.
For “IgG1 b12 (unmodified Fc) (from UniProt P01857) L234A; L235A”, the response in assay [1] was 2 log10 MFI; in assay [5] it was 2 log10 MFI; in assay [6], 3.4 log10 MFI; in assay [2], 2 log10 MFI. Also, the values for the Kd in assay [3] and in assay [4] were 2.04 nM and 2.06 nM, respectively.

As usually defined, the Kd is the concentration at which binding is half-saturated.
